Publication PMC2944003

Molecular target: human complement receptor 3 (CR3) on CR3-transfected CHO cells (CHO/CR3) (human), P11215
Test: flow cytometry on cells
Conditions: remark: other sources report otherwise

B1: Factor H (fH), purified human, P08603 19-1231 (natural protein)
chain: EDCNELPPRRNTEILTGSWSDQTYPEGTQAIYKCRPGYRSLGNVIMVCRKGEWVALNPLRKCQKRPCGHPGDTPFGTFTLTGGNVFEYGVKAVYTCNEGYQLLGEINYRECDTDGWTNDIPICEVVKCLPVTAPENGKIVSSAMEPDREYHFGQAVRFVCNSGYKIEGDEEMHCSDDGFWSKEKPKCVEISCKSPDVINGSPISQKIIYKENERFQYKCNMGYEYSERGDAVCTESGWRPLPSCEEKSCDNPYIPNGDYSPLRIKHRTGDEITYQCRNGFYPATRGNTAKCTSTGWIPAPRCTLKPCDYPDIKHGGLYHENMRRPYFPVAVGKYYSYYCDEHFETPSGSYWDHIHCTQDGWSPAVPCLRKCYFPYLENGYNQNYGRKFVQGKSIDVACHPGYALPKAQTTVTCMENGWSPTPRCIRVKTCSKSSIDIENGFISESQYTYALKEKAKYQCKLGYVTADGETSGSITCGKDGWSAQPTCIKSCDIPVFMNARTKNDFTWFKLNDTLDYECHDGYESNTGSTTGSIVCGYNGWSDLPICYERECELPKIDVHLVPDRKKDQYKVGEVLKFSCKPGFTIVGPNSVQCYHFGLSPDLPICKEQVQSCGPPPELLNGNVKEKTKEEYGHSEVVEYYCNPRFLMKGPNKIQCVDGEWTTLPVCIVEESTCGDIPELEHGWAQLSSPPYYYGDSVEFNCSESFTMIGHRSITCIHGVWTQLPQCVAIDKLKKCKSSNLIILEEHLKNKKEFDHNSNIRYRCRGKEGWIHTVCINGRWDPEVNCSMAQIQLCPPPPQIPNSHNMTTTLNYRDGEKVSVLCQENYLIQEGEEITCKDGRWQSIPLCVEKIPCSQPPQIEHGTINSSRSSQESYAHGTKLSYTCEGGFRISEENETTCYMGKWSSPPQCEGLPCKSPPEISHGVVAHMSDSYQYGEEVTYKCFEGFGIDGPAIAKCLGEKWSHPPSCIKTDCLSLPSFENAIPMGEKKDVYKAGEQVTYTCATYYKMDGASNVTCINSRWTGRPTCRDTSCVNPPTVQNAYIVSRQMSKYPSGERVRYQCRSPYEMFGDEEVMCLNGNWTEPPQCKDSTGKCGPPPPIDNGDITSFPLSVYAPASSVEYQCQNLYQLEGNKRITCRNGQWSEPPKCLHPCVISREIMENYNIALRWTAKQKLYSRTGESVEFVCKRGYRLSSRSHTLRTTCWDGKLEYPTCAKR
B1 showed a fold increase in binding to CHO/CR3 cells compared to CHO/NEO cells of 4 fold.
